Measured values: PMC10663500, “High-throughput analysis system of interaction kinetics for data-driven antibody design” (Scientific Reports, 2023)
Changes are numbered by the printed parent chain.

B1: toripalimab Fab L.V99M (Fab, V domains shown)
VH: QGQLVQSGAEVKKPGASVKVSCKASGYTFTDYEMHWVRQAPIHGLEWIGVIESETGGTAYNQKFKGRVTITADKSTSTAYMELSSLRSEDTAVYYCAREGITTVATTYYWYFDVWGQGTTVTVSS
VL: DVVMTQSPLSLPVTLGQPASISCRSSQSIVHSNGNTYLEWYLQKPGQSPQLLIYKVSNRFSGVPDRFSGSGSGTDFTLKISRVEAEDVGVYYCFQGSHMPLTFGQGTKLEIK
notes: as the heavy chain of Sm3; light chain of Sm3 with this change; numbers count from the chain's first residue; source: Brevibacillus, culture supernatant (ammonium sulfate precipitate); not shown: 6xHis, C-terminal, kept; 6xHN, C-terminal, kept
B2: toripalimab Fab L.P100A (Fab, V domains shown)
VH: B1 VH
VL: B1 VL with M99V, P100A
notes: as for B1
B3: toripalimab Fab L.V99L (Fab, V domains shown)
VH: B1 VH
VL: B1 VL with M99L
notes: as for B1
B4: toripalimab Fab L.V99Y (Fab, V domains shown)
VH: B1 VH
VL: B1 VL with M99Y
notes: as for B1
B5: toripalimab Fab L.V99F (Fab, V domains shown)
VH: B1 VH
VL: B1 VL with M99F
notes: as for B1
B6: toripalimab Fab L.P100D (Fab, V domains shown)
VH: B1 VH
VL: B1 VL with M99V, P100D
notes: as for B1
B7: toripalimab Fab L.P100L (Fab, V domains shown)
VH: B1 VH
VL: B1 VL with M99V, P100L
notes: as for B1
B8: toripalimab Fab L.P100H (Fab, V domains shown)
VH: B1 VH
VL: B1 VL with M99V, P100H
notes: as for B1
B9: toripalimab Fab L.V99I (Fab, V domains shown)
VH: B1 VH
VL: B1 VL with M99I
notes: as for B1
B10: toripalimab Fab L.P100G (Fab, V domains shown)
VH: B1 VH
VL: B1 VL with M99V, P100G
notes: as for B1
B11: toripalimab Fab L.V99D (Fab, V domains shown)
VH: B1 VH
VL: B1 VL with M99D
notes: as for B1
B12: toripalimab Fab H.E52Y (Fab, V domains shown)
VH: B1 VH with E52Y
VL: B1 VL with M99V
notes: heavy chain of Sm3 with this change; numbers count from the chain's first residue; as the light chain of Sm3; source: Brevibacillus, culture supernatant (ammonium sulfate precipitate); not shown: 6xHis, C-terminal, kept; 6xHN, C-terminal, kept
B13: toripalimab Fab L.P100F (Fab, V domains shown)
VH: B1 VH
VL: B1 VL with M99V, P100F
notes: as for B1

The binders below were run against T1, human programmed cell death protein 1 (hPD-1) C93S (aa 24-167) (Homo sapiens, UniProt Q15116, C93S) (assay: SPR; Carterra LSA; Fab from the ammonium sulfate precipitate of the culture supernatant immobilised on a NiHC200M chip; hPD-1 (1-1024 nM) or mPD-1-Fc (4-1024 nM) as analyte, fourfold dilution series, no regeneration; HBS-EP pH 7.4, 25 °C; medians over the spots of a construct, KD = koff/kon). Details: one partner purified.
T1 construct: made as a fusion with a TEV site and human Fc; the Fc was cut off with TEV protease; source: Expi293F, purified (Protein A, TEV cleavage of Fc, SEC; monomer fractions); not shown: Fc (human), C-terminal, cleaved
T1 sequence (Q15116 24-167 C93S): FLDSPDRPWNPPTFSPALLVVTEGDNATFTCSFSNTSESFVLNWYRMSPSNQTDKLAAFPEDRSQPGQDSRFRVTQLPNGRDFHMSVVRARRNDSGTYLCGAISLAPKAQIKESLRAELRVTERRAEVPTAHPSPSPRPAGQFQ
How it was run: (§1)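 Human PD-1 (1–1024 nM) or mouse PD-1-Fc (4–1024 nM), in fourfold series, was flowed without regeneration over Fabs captured in duplicate on a NiHC200M chip (Carterra LSA, 25 °C), using 10 min association and 5 min dissociation. The Fabs had been recovered from Brevibacillus culture supernatants by ammonium sulfate precipitation and redissolved in HBS-EP. For binding constants, KD was defined as koff/kon from per-construct medians, with rates fitted by the kdka model under slow- or fast-dissociation settings (best fit) and unconfirmed binders set to kon 10^3 […] and koff 10^−2 s^−1.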
Binder B1 has a Kd of 1.43 nM, a koff of 3.17e-05 s⁻¹ and a kon of 22100 M⁻¹ s⁻¹.
For B2, the Kd was under 0.513 nM, the koff was under 1e-05 s⁻¹ and the kon was 19500 M⁻¹ s⁻¹.
B3 showed a Kd of under 1.43 nM, a koff of under 1e-05 s⁻¹ and a kon of 7020 M⁻¹ s⁻¹.
B4 showed a Kd of 5.01 nM, a koff of 0.000155 s⁻¹ and a kon of 30900 M⁻¹ s⁻¹.
For B5, the Kd was 2.51 nM, the koff was 4.24e-05 s⁻¹ and the kon was 16900 M⁻¹ s⁻¹.
B6 gave a Kd of under 1.32 nM, a koff of under 1e-05 s⁻¹ and a kon of 7580 M⁻¹ s⁻¹.
Binder B7 has a Kd of 13.8 nM, a koff of 0.000129 s⁻¹ and a kon of 9280 M⁻¹ s⁻¹.
B8 was tested, and the Kd was 2.24 nM, the koff was 1.56e-05 s⁻¹ and the kon was 6960 M⁻¹ s⁻¹.
For B9, the Kd was under 0.7 nM, the koff was under 1e-05 s⁻¹ and the kon was 14300 M⁻¹ s⁻¹.
In the case of B10, the Kd is reported as 4.99 nM, the koff is reported as 3.76e-05 s⁻¹ and the kon is reported as 7550 M⁻¹ s⁻¹.
B11 was tested, and the Kd was 1.62 nM, the koff was 1.8e-05 s⁻¹ and the kon was 11100 M⁻¹ s⁻¹.
Binder B12 has a Kd of 49.4 nM, a koff of 0.000629 s⁻¹ and a kon of 12700 M⁻¹ s⁻¹.
B13 was tested, and the Kd was 9 nM, the koff was 6.35e-05 s⁻¹ and the kon was 7060 M⁻¹ s⁻¹.

Each binder was assayed against T2, mouse programmed cell death protein 1 Fc fusion protein (mPD-1-Fc), mPD-1 C60S (aa 25-167) (Mus musculus, UniProt Q02242, stabilised) in the same assay as above. Details: one partner purified.
T2 construct: not cleaved; source: Expi293F, purified (Protein A, SEC; dimeric fraction); not shown: Fc (human), C-terminal, kept
How it was run: as §1
Work on B1 yielded a Kd of 590 nM, a koff of 0.00702 s⁻¹ and a kon of 11900 M⁻¹ s⁻¹.
In the case of B2, the Kd is reported as 89.8 nM, the koff is reported as 0.00349 s⁻¹ and the kon is reported as 38900 M⁻¹ s⁻¹.
In the case of B3, the Kd is reported as 407 nM, the koff is reported as 0.00629 s⁻¹ and the kon is reported as 15500 M⁻¹ s⁻¹.
In the case of B4, the Kd is reported as 576 nM, the koff is reported as 0.0369 s⁻¹ and the kon is reported as 63900 M⁻¹ s⁻¹.
Work on B5 yielded a Kd of 123 nM, a koff of 0.00104 s⁻¹ and a kon of 8450 M⁻¹ s⁻¹.
Binder B6 has a Kd of 47.4 nM, a koff of 0.00142 s⁻¹ and a kon of 30100 M⁻¹ s⁻¹.
Binder B7 has a Kd of 9.99 nM, a koff of 0.000147 s⁻¹ and a kon of 14700 M⁻¹ s⁻¹.
With B8 the Kd was under 1.06 nM, the koff was under 1e-05 s⁻¹ and the kon was 9460 M⁻¹ s⁻¹.
Binder B9 has a Kd of 289 nM, a koff of 0.014 s⁻¹ and a kon of 48500 M⁻¹ s⁻¹.
For B10, the Kd was 22.8 nM, the koff was 0.000384 s⁻¹ and the kon was 16800 M⁻¹ s⁻¹.
B11 showed a Kd of 19.8 nM, a koff of 0.000759 s⁻¹ and a kon of 38300 M⁻¹ s⁻¹.
B12 gave a Kd of 600 nM, a koff of 0.149 s⁻¹ and a kon of 247000 M⁻¹ s⁻¹.
Binder B13 has a Kd of under 1.08 nM, a koff of under 1e-05 s⁻¹ and a kon of 9270 M⁻¹ s⁻¹.
